Consider two molecules from US11566081B2, “Anti-acetaminophen antibodies and acetaminophen protein adducts” (BioVentures, LLC, priority 2014, dated 2023).

The assay has as its system acetaminophen protein adduct (BSA-APAP, 3-(cystein-S-yl)acetaminophen). Briefly: Competitive ELISA: relative inhibitory potency of APAP-protein adduct (BSA-APAP) versus free APAP. The following applies: inhibitors BSA-APAP vs APAP on a molar basis, clone supernatant final dilution 1:500. The class given is binding. From the text:
Tissue culture supernatants from Rabbit monoclonal antibody clone 14-12 at a dilution of 1:250 was mixed with serial 4-fold dilutions of inhibitor (either BSA-APAP or APAP) such that the final dilution of RmAb was 1:500. The final concentrations of APAP were 80, 20, 5, 1.25, and 0.31 nmole per ELISA well. The final concentrations of APAP-BSA (quantified by HPLC-EC as APAP-Cys from the hydrolyzed protein) were 10, 2.5, 0.625, 0.156, and 0.04 pmole per ELISA well.
Synthetically prepared acetaminophen-protein adduct (BSA-APAP) and free drug (APAP) were evaluated in competitive ELISA to determine their relative capacity, on a molar basis, to inhibit the binding of clone 14-12 rabbit monoclonal antibody to solid-phase immobilized acetaminophen protein adduct. […] Restated, clone 14-12 antibody has approximately 8000 times more affinity for acetaminophen protein adduct than it does for free APAP as measured in this ELISA context.
The competitive ELISA was repeated with rabbit monoclonal antibody (RMAb) 14-12 and rabbit monoclonal antibody (RMAb) 22-8. […] After incubation and washing, bound RMAb was detected using Goat anti-Rabbit-IgG conjugated to HRP followed by the substrate TMB and color development was determined using an ELISA plate reader. […]
(In an ELISA, binding on a coated surface is turned into a signal by an enzyme label.)

B1: 22-8: rabbit monoclonal antibody to acetaminophen-protein adduct, immunogen CP-2IT-APAP; light chain SEQ ID NO:15, heavy chain SEQ ID NO:16 (antibody)
heavy: METGLRWLLLVAVLKGVQCQSLEESGGRLVTPGGSLTLTCTASGLTINNYYIIWVRQAPGKGLKYIGITYGGGFAYYASWAKGRFTISRTSTTVDLKMTSLTAEDTATYFCVRAAAGGAYDLWGQGTLVTVSSGQPKAPSVFPLAPCCGDTPSSTVTLGCLVKGYLPEPVTVTWNSGTLTNGVRTFPSVRQSSGLYSLSSVVSVTSSSQPVTCNVAHPATNTKVDKTVAPSTCSKPTCPPPELLGGPSVFIFPPKPKDTLMISRTPEVTCVVVDVSQDDPEVQFTWYINNEQVRTARPPLREQQFNSTIRVVSTLPIAHQDWLRGKEFKCKVHNKALPAPIEKTISKARGQPLEPKVYTMGPPREELSSRSVSLTCMINGFYPSDISVEWEKNGKAEDNYKTTPAVLDSDGSYFLYSKLSVPTSEWQRGDVFTCSVMHEALHNHYTQKSISRSPGK
light: MDTRAPTQLLGLLLLWLPGATFAIEMTQTPSPVSAVVGGTVTINCQSSQNVFRKNYLSWFQQKPGQPPKLLISYIDSLTSGVPSRFSGSGAGTQFTLTISDVQCDDAATYYCLGVDGSANDATFGGGTEVVVEGDPVAPTVLIFPPAADQVATGTVTIVCVANKYFPDVTVTWEVDGTTQTTGIENSKTPQNSADCTYNLSSTLTLTSTQYNSHKEYTCKVTQGTTSVVQSFNRGDC
As to B1, the “times more affinity for acetaminophen protein adduct than for free APAP” value was “approximately 1250 times”.

B2: 14-12: rabbit monoclonal antibody to acetaminophen-protein adduct, immunogen CP-2IT-APAP; light chain SEQ ID NO:13, heavy chain SEQ ID NO:14 (antibody)
heavy: METGLRWLLLVAVLKGVQCQSVEESGGRLVTPGTPLTLTCTVSGFSINAYGINWVRQAPGKGLEYIGFSAPHTASYARWTKGRFTMSRTSTTVDLRMTSPTTEDTATYFCARYDRGGMVFNLWGQGTLVTVSSGQPKAPSVFPLAPCCGDTPSSTVTLGCLVKGYLPEPVTVTWNSGTLTNGVRTFPSVRQSSGLYSLSSVVSVTSSSQPVTCNVAHPATNTKVDKTVAPSTCSKPTCPPPELLGGPSVFIFPPKPKDTLMISRTPEVTCVVVDVSQDDPEVQFTWYINNEQVRTARPPLREQQFNSTIRVVSTLPIAHQDWLRGKEFKCKVHNKALPAPIEKTISKARGQPLEPKVYTMGPPREELSSRSVSLTCMINGFYPSDISVEWEKNGKAEDNYKTTPAVLDSDGSYFLYSKLSVPTSEWQRGDVFTCSVMHEALHNHYTQKSISRSPGK
light: MDTRAPTQLLGLLLLWLPGATFALVMTQTPSSVPAAVGGTVTIGCQASQSISRQVSWYQQKPGQPPKLLIYRASTLASGVSSRFKGSGSGTEFTLTISGVQCDDAATYYCLGIVTDRIADGLAFGGGTEVVVKGDPVAPTVLIFPPAADQVATGTVTIVCVANKYFPDVTVTWEVDGTTQTTGIENSKTPQNSADCTYNLSSTLTLTSTQYNSHKEYTCKVTQGTTSVVQSFNRGDC
B2: the “times more affinity for acetaminophen protein adduct than for free APAP” value was “approximately 8000 times”.
